Residue numbers refer to the chain shown, from its start.
B1: AS06750 sdAb (VHH)
VHH: AVQLVESGGGLVQAGDSLRLSCTASGRTFLTYAVGWFRQAPGTEREFVAGIRWSGGYTDYADSVKGRFTISRDNAKNTVYLQMNSLKPEDTAVYYCAAHRTIATIPEKYEYEYWGQGTQVTVSS
B2: AS12003 sdAb (VHH)
VHH: B1 VHH with A1E, T23A, T31S, Y57S, I105V, E107N, E112D, Y113T
B3: AS06617 sdAb (VHH)
VHH: DVQLVESGGGLVQAGDSLRLSCAASGRTFISYAVGWFRQAPGSEREFVAGIRWNGIHTDYADSVKGRFTISRDNAKNTVTLEMTSLKPEDTAVYYCAAHRTIATIPEKYEYEYWGQGTQVTVSS
B4: AS06775 sdAb (VHH)
VHH: B1 VHH with A1Q, T23A, Y32L, G56S, Y57G, R100T, Q116R
B5: AS06618 sdAb (VHH)
VHH: B1 VHH with A1E, G10R, Q13R, T23A, T31S, D62E, S63A
B6: AS06682 sdAb (VHH)
VHH: B1 VHH with T31S, G56E, Y57H, D62A, R100T, E107K
B7: AS11947 sdAb (VHH)
VHH: DVQLVESGGGLVQAGDSLRLTCSASGRTFISYAVGWFRQAPGTEREFVAGIRWNGISTDYTDSVKGRFTISRDNAKNTVYLQMNSLKPEDTAIYYCAAHRTIATIPNKYEYDHWGQGTQVTVSS
B8: AS06686 sdAb (VHH)
VHH: AVQLVESGGGLVQAGDSLRLACAASGRTFLTYALGWFRQAPGKEREFVAGVSWSGSSTKYADSVKGRFTISRDNAKNTVYMQMNSLKPEDTAVYYCAAQISAIVPISAHEYQYWGQGTQVTVSS
B9: AS11948 sdAb (VHH)
VHH: EVQLVESGGGLVQAGDSLRLSCVASGRTFVTYGMGWFRQAPGKEREFVAAINWSGSMTSYGDSVKGRFAISRDNAKNTVYLQMNSLKPEDTAVYYCAAALGAVVYTTREPYTYWGRGTQVTVSS
B10: AS06628 sdAb (VHH)
VHH: QVQLVESGGGLVQAGGSLRLSCAASGRTFITYAIGWFRQAPGKEREFVTAINWSGSMTSYADSVKGRFTISRDNNKNMVYLQMNSLKPEDTAVYYCAAHRGAIAPMTQSVYDYWGQGTQVTVSS
B11: AS06730 sdAb (VHH)
VHH: B10 VHH with T49S, N75A, M78T, S85G, M106I, T107A, D112T, Y113N
B12: AS06703 sdAb (VHH)
VHH: B10 VHH with Q1E, Q13R, M78T, V93L, R100L, T107S
B13: AS06791 sdAb (VHH)
VHH: B10 VHH with N75A, M78T, M83I, S85G, P88S
B14: AS06778 sdAb (VHH)
VHH: QVQLVESGGGLVQAGGSLKLSCAASGRTFITYAMGWFRQAPGKERELVAAISWSGSSTYSADSVKGRFTISRDNAKNTVYLQMNSLKPEDTAVYYCAAEVSARTGEHLPKLMGDYWGQGTQVTVSS

target: human PD-L1 expressed on CHO-K1 cells (human, UniProt Q9NZQ7 19-290); experiment: cell-based or functional assay
Sequence (Q9NZQ7 19-290): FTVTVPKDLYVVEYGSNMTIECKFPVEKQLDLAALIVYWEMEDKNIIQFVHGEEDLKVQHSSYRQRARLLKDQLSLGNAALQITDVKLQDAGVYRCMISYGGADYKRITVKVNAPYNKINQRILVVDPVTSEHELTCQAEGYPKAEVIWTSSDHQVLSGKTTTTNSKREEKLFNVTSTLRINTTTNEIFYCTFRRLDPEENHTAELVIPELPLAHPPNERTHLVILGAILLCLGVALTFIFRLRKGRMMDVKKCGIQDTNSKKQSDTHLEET

Row | Binder | EC50 of PD-L1- based blockade assay for sdAbs [nM]
1 | B1 | 33.6
2 | B2 | 96.2
3 | B3 | 63.8
4 | B4 | 75.5
5 | B5 | 44.5
6 | B6 | 42
7 | B7 | 77.2
8 | B8 | 352
9 | B9 | 25.2
10 | B10 | 24.2
11 | B11 | 17.2
12 | B12 | 15
13 | B13 | 36.5
14 | B14 | 20.1

From patent US20210221891A1 (NANJING LEGEND BIOTECH, published 2021)
